Source: publication PMC11544220

Target: Mycobacterium tuberculosis dUTPase lacking the mycobacteria-specific loop A133-S137 (MtDUT^Δloop) (Mycobacterium tuberculosis) (UniProt P9WNS5)
Assay: crystal structure

With “Mycobacterium tuberculosis dUTPase lacking the mycobacteria-specific loop A133-S137 (MtDUT^Δloop) (from UniProt P9WNS5 1-154) (enzyme)” as the substance, how does the stoichiometry N (subunits in the oligomer) read?
The stoichiometry N (subunits in the oligomer) was 3.
